Laboratory results: patent US8017725B2, “Use of heparin-binding domain of fibronectin for diagnosis and treatment of cancer” (Novartis Forschungesstiftung Zweigniederlassung Friedrich …, priority 2001, dated 2011)
“Also recorded” adds a separate entry of the source.

Assays:
T98G and REF52 cells = assay: Immunofluorescence of actin stress fibres and focal contacts; format: cell-based
Description: 10^4 cells were transferred onto 4-well Cellstar plastic plates (Greiner) that were coated with ECM proteins as described. Cells were fixed with 4% paraformaldehyde, 50 mM phosphate buffer, 5 mM EDTA in PBS for 15 minutes, blocked with 3% BSA, 0.5% Tween-20 in PBS and incubated with primary and secondary antibodies in blocking solution. Slides were embedded in 10.5% Mowiol containing 2.5% DABCO as antifade agent. Expression of syndecans was determined by immunofluorescence.
(§1) Cells were plated on substrata (FN, FN/TN, FN/TN/III13, FN/TN+III13, III13, or BSA) for 1 h and 2 h, fixed and stained with crystal violet or vinculin and TRITC—labelled phalloidin. Adherent cells were photographed and spread cells were counted. Six-fold molar excess of FNIII13 (4 μg/cm^2) was either bound to a mixed fibronectin/tenascin-C substratum prior to addition of the cells (FN/TN/III13) or, was added in solution together with the cells (FN/TN+FNIII13). Proliferation of MDA-MB435 cells and DNA replication of T98G glioblastoma cells were determined as described in Examples 4 and 5. […] T98G cells plated for 2 h on fibronectin or on the mixed substratum were stained for vinculin. […] In addition, polymerisation of actin into stress fibres was blocked by tenascin-C. No polymerised actin was found.

[1] = system: T98G cells, MDA-MB435 cells and rat embryo fibroblasts REF52; assay: Attachment assay: cell spreading on fibronectin/tenascin-C with added fibronectin fragment; format: cell-based
Description: 60-well microtiter plates (Nunc) were coated with 10 μg/ml ECM molecules giving rise to 1 μg/cm^2 (fibronectin and tenascin-C) and 4 μg/cm^2 (FNIII13) for 1 h at 37° C. ECM proteins were coated separately, starting with fibronectin, followed by tenascin-C, FNIII13 and BSA. The non-coated plastic surface was blocked with 1% heat-inactivated BSA in PBS giving rise to 10 μg/cm^2 protein. Similarly, mixed substrata of collagen I and laminin 1, respectively with tenascin-C were prepared and tenascin-C was detected by ELISA.
Efficient fibronectin and tenascin-C coating was determined by ELISA with an anti-fibronectin and anti-tenascin-C antibody (Fischer, D. et al (1995) J Biol Chem 270: 3378-3384), respectively and by PAGE analysis of lysed surface-bound ECM material combined with Coomassie Brilliant Blue staining. Before plating, cells were serum starved for 18 h in DMEM containing 1×ITS (insulin, transferrin, selene) supplement, trypsinised, trypsin was blocked with 100 μg/ml soybean trypsin inhibitor in PBS and, cells were resuspended in serum-free medium and counted. 200-500 cells per well were plated for the indicated time points, fixed by addition of glutaraldehyde (2% final concentration) for 15 minutes and stained with 0.1% crystalviolet in 20% methanol for 30 minutes. Cells were observed under a Nikon microscope (Nikon diaphot) and pictures were taken with a Nikon camera.
as §1

tenascin-C [2] = assay: In vitro binding assay (ELISA) to tenascin-C; parameters: species or system chicken; settings: substratum-immobilised tenascin-C
Description: (§2) 96-well ELISA plates were coated with the indicated ECM proteins for 1 h at 37° C., blocked with 1% milkpowder, 0.05% Tween-20 in PBS. ECM proteins were added at the indicated concentrations in blocking solution for 1 h, washed with blocking solution and anti-fibronectin or anti-tenascin-C antibodies were added. Bound proteins were detected by immune reaction with a peroxidase-coupled secondary antibody specifically recognising anti-fibronectin and anti-tenascin-C antibodies, respectively, followed by colour reaction with 21 mg/ml citric acid 1-hydrate, 34 mg/ml Na2HPO4.2H2O, 0.4 mg/ml phenylenediamine, 1 μl H2O2 that was stopped with 4M sulphuric acid. The absorbance was read at […].
Bound fragments were detected with a polyclonal anti-fibronectin antibody, bound tenascin-C was detected with a monoclonal anti-tenascin-C antibody.

syndecan-4 = assay: Syndecan-4 immunoprecipitation and immunoblotting for FNIII13; format: binding
Description: (§3) To investigate FNIII13 as a potential ligand of syndecan-4, the interaction of syndecan-4 with FNIII13 was tested. Upon addition of FNIII13 to T98G:S4* cells, FNIII13 was detected in a syndecan-4 immunoprecipitation followed by western blotting with a GST specific antibody. This interaction was blocked upon addition of heparin. Parental and syndecan-4 overexpressing T98G:S4* cells were incubated with (100 μg/ml) FNIII13 for 1 h in the presence or absence of 0.5 mg/ml heparin. Syndecan-4-bound FNIII13 was detected by immunoprecipitation of syndecan-4 and immunoblotting for FNIII13. Recombinant FNIII13 was added to the cells in the absence or presence of (0.5 mg/ml) heparin. […] To further test whether FNIII13 binds to syndecan-4, FNIII13 was added to T98G cells and cell surface-bound FNIII13 was detected by pull down of the GST-tagged FNIII13 with glutathione Sepharose followed by western blotting with an anti-His antibody or by immunofluorescence with an anti-GST antibody. […] This interaction could be blocked by heparin showing that syndecan-4 bound FNIII13 in a glycosaminoglycan-dependent manner. In addition, cell surface-bound FNIII13 was detected by immunofluorescence with an anti-His and anti-GST antibody. […] Syndecan-2 expression was determined by incubation with chicken anti-syndecan-2, followed by rabbit anti-chicken and FITC coupled goat anti-rabbit immunostaining.

tenascin-C [3] = assay: Co-immunoprecipitation with tenascin-C; format: binding, chicken
[4] = system: FAK (focal adhesion kinase) autophosphorylation at Y397; assay: FAK autophosphorylation by immunoblotting; format: cell-based, human; settings: T98G parental and T98G:S4* cells
Description: An experiment was performed to check for the possibility that tenascin-C might compete with syndecan-4 for binding to the HepII site in fibronectin. The experiment tested whether activation of syndecan-4 through overexpression could rescue the tenascin-C-induced spreading defect on fibronectin. Parent T98G cells, pools (T98G:S4) or a selected clone (T98G:S4*) of glioblastoma cells stably overexpressing syndecan-4 (T98G:S4) were plated on the indicated substrata for 30 minutes, 2 h, 18 h or fixed, stained with crystal violet, photographed, and counted or stained with TRITC-labelled phalloidin and vinculin. Syndecan-4 was detected by immunofluorescence with an anti-syndecan-4 antibody. There was no staining with an unspecific anti-His monoclonal antibody (control), nor with the secondary antibody alone. FAK (focal adhesion kinase) autophosphorylation at Y397 and total FAK expression levels were assessed by immunoblotting with specific antibodies. DNA replication was determined as described in Example 4 and 5. As a result, pools of T98G cells (T98G:S4) that overexpressed syndecan-4 thereby activating syndecan-4 attached and spread on the mixed fibronectin/tenascin-C substratum. The majority of the 64.7% of T98G:S4 cells that attached also spread on the fibronectin/tenascin-C substratum. […]

T98G:S4* cells = assay: Cell surface binding of FNIII13 (pull down, western blotting, immunofluorescence); format: cell-based, human; settings: compared to parental T98G
Description: as §3

[5] = system: binding of tenascin-C to surface-immobilised intact fibronectin; assay: Competition of tenascin-C binding to surface-immobilised intact fibronectin
Description: as §2
No binding of the recombinant fragment FNIII7-10, including the RGD and synergy sites, to tenascin-C was detected in an ELISA assay.

[6] = fragment bound (immobilised) to the mixed substratum

Molecule: SEQ ID NO:4: 20 amino acid fragment of FNIII13 having the sequence of SEQ ID NO:4, made by solid phase synthesis (RRARVTDATETTITISWRTK; listed as Homo sapiens)
- restoration of actin stress fibres and focal contacts on fibronectin/tenascin-C substratum (T98G and REF52 cells): largely restored
- restoration of cell spreading on fibronectin/tenascin-C substratum [1, 6]: restored cell spreading

Molecule: fibronectin: Fibronectin prepared from horse serum by gelatin agarose chromatography
- binding to tenascin-C in ELISA (tenascin-C [2]): binds to substratum-immobilised tenascin-C in a dose-dependent manner

Molecule: heparin [reference compound]
- effect on the FNIII13/syndecan-4 interaction (syndecan-4; 0.5 mg/ml heparin): blocked

B1: FNIII13: recombinant 13th fibronectin type III repeat of the HepII site (SEQ ID NO:1) (protein, listed as Homo sapiens)
chain: NVSPPRRARVTDATETTITISWRTKTETITGFQVDAVPANGQTPIQRTIKPDVRSYTITGLQPGTDYKIYLYTLNDNARSSPVVIDAST
- complex formation with tenascin-C in co-immunoprecipitation (tenascin-C [3]): form complexes
- FAK autophosphorylation at Y397 [4]: largely restored FAK autophosphorylation
- FNIII13 bound to syndecan-4 in immunoprecipitation (syndecan-4; T98G:S4* cells, 100 μg/ml FNIII13, 1 h): detected
- binding to tenascin-C in ELISA (tenascin-C [2]): bound to tenascin-C in a dose-dependent manner reaching saturation
- binding to the cell surface of syndecan-4 overexpressing T98G cells (T98G:S4* cells): dose-dependent and heparin-competable manner; also recorded: several fold increased levels
- competition of tenascin-C binding to immobilised intact fibronectin [5]: competed for by FNIII13 in a concentration-dependent fashion
- restoration of actin stress fibres and focal contacts on fibronectin/tenascin-C substratum (T98G and REF52 cells): largely restored
- attachment and spreading on the fragment alone as substratum ([1]; FNIII13 substratum without fibronectin): poorly attached and remained rounded
- restoration of cell spreading on fibronectin/tenascin-C substratum ([1]; fragment added in solution together with the cells): restored
- restoration of cell spreading on fibronectin/tenascin-C substratum [1, 6]: could restore the cell spreading defect
